In the Human Domainome abundance scans (Beltran et al. 2025):
± gives the uncertainty stated by the source.

B1: Peroxisome proliferator-activated receptor delta, residues 71 to 145; numbered along this chain, Q03181 (parent)
chain: NMECRVCGDKASGFHYGVHACEGCKGFFRRTIRMKLEYEKCERSCKIQKKNRNKCQYCRFQKCLALGMSHNAIRF

Variants of: B1
Test: abundance fitness (aPCA) (normalised: wild type 0, dead -1); higher = more abundant; growth selection in yeast, the domain comes from the species named
Conditions: Homo sapiens

Variant | abundance fitness
Q61T | -0.304 ± 0.062
Q61V | -0.243 ± 0.039
Q61E | -0.037 ± 0.041
Q61C | -0.615 ± 0.19
Q61I | -0.254 ± 0.1
Q61A | -0.069 ± 0.039
Q61K | -0.098 ± 0.056
Q61Y | -0.227 ± 0.12
Q61D | -0.751 ± 0.22
Q61M | -0.061 ± 0.053
Q61G | -0.639 ± 0.055
Q61F | -0.909 ± 0.3
Q61P | -0.666 ± 0.12
Q61N | -0.359 ± 0.095
Q61S | -0.248 ± 0.056
Q61H | -0.248 ± 0.092
Q61L | -0.439 ± 0.053
Q61W | -0.699 ± 0.094
Q61R | -0.296 ± 0.038
C63F | -0.403 ± 0.095
C63Q | -0.698 ± 0.11
C63I | -0.669 ± 0.17
C63G | -0.591 ± 0.06
C63A | -0.585 ± 0.077

Variant | abundance fitness
C63L | -0.547 ± 0.062
C63S | -0.905 ± 0.11
C63M | -0.063 ± 0.06
C63Y | -0.232 ± 0.078
C63V | -0.912 ± 0.12
C63D | -0.635 ± 0.14
C63T | -0.85 ± 0.13
C63R | -0.508 ± 0.054
C63E | -0.689 ± 0.13
C63W | -0.88 ± 0.13
C63K | -0.791 ± 0.14
L64H | -0.274 ± 0.1
L64C | -0.16 ± 0.073
L64M | -0.188 ± 0.058
L64W | -0.755 ± 0.1
L64N | -0.906 ± 0.21
L64S | -0.648 ± 0.089
L64E | -0.397 ± 0.073
L64Q | -0.162 ± 0.056
L64G | -0.805 ± 0.079
L64I | -0.037 ± 0.07
L64T | -0.288 ± 0.065
L64A | -0.38 ± 0.059
L64D | -0.83 ± 0.18

Variant | abundance fitness
L64P | -0.838 ± 0.12
L64F | -0.828 ± 0.23
L64V | -0.022 ± 0.038
L64R | -0.391 ± 0.041
I47K | -0.453 ± 0.061
I47T | -0.253 ± 0.048
I47M | -0.132 ± 0.044
I47N | -0.4 ± 0.098
I47E | -0.235 ± 0.035
I47W | -0.316 ± 0.034
I47V | 0.004 ± 0.027
I47H | -0.589 ± 0.1
I47D | -0.126 ± 0.054
I47C | -0.51 ± 0.062
I47Y | -0.419 ± 0.11
I47F | -0.246 ± 0.074
I47R | -0.502 ± 0.034
I47G | -0.269 ± 0.025
I47S | -0.287 ± 0.038
N51D | 0.086 ± 0.053
N51W | -0.408 ± 0.071
N51G | -0.129 ± 0.033
N51I | -0.016 ± 0.1
N51E | 0.055 ± 0.039

Variant | abundance fitness
N51M | -0.026 ± 0.072
N51H | -0.071 ± 0.089
N51K | -0.212 ± 0.065
N51Q | -0.042 ± 0.063
N51C | -0.451 ± 0.12
N51L | -0.133 ± 0.054
N51R | -0.395 ± 0.055
N51V | -0.17 ± 0.043
N51Y | -0.363 ± 0.15
N51S | -0.052 ± 0.048
N51F | -0.028 ± 0.12
N51T | -0.002 ± 0.062
N51P | -0.307 ± 0.099
N51A | -0.154 ± 0.043
K62V | -0.569 ± 0.078
K62W | -0.646 ± 0.092
K62S | -0.645 ± 0.092
K62G | -0.661 ± 0.074
K62I | -0.245 ± 0.099
K62L | -0.318 ± 0.051
K62P | -0.824 ± 0.12
K62M | -0.328 ± 0.076
K62F | -0.418 ± 0.13
K62A | -0.056 ± 0.046

Variant | abundance fitness
K62C | -0.543 ± 0.13
K62T | -0.234 ± 0.063
K62E | -0.447 ± 0.078
K62Y | -0.441 ± 0.13
K62D | -0.671 ± 0.15
K62Q | -0.293 ± 0.077
K62H | -0.522 ± 0.14
K62R | -0.193 ± 0.041
K46D | 0.142 ± 0.04
K46V | 0.023 ± 0.032
K46F | 0.015 ± 0.052
K46Q | 0.106 ± 0.047
K46W | -0.153 ± 0.043
K46E | 0.124 ± 0.04
K46I | 0.12 ± 0.068
K46L | 0.022 ± 0.033
K46C | -0.046 ± 0.052
K46H | 0.047 ± 0.068
K46Y | -0.051 ± 0.07
K46R | -0.037 ± 0.029
K46A | 0.007 ± 0.034
K46T | 0.05 ± 0.046
K46M | 0.066 ± 0.047
K46S | 0.006 ± 0.038

Variant | abundance fitness
K46N | 0.029 ± 0.067
K46P | 0.037 ± 0.044
C55L | -0.98 ± 0.13
C55K | -0.646 ± 0.18
C55R | -0.868 ± 0.076
C55G | -0.807 ± 0.057
C55F | -0.824 ± 0.27
C55T | -0.393 ± 0.11
C55H | -0.441 ± 0.29
C55Y | -0.676 ± 0.32
C55P | -0.864 ± 0.34
C55S | -0.823 ± 0.12
C55V | -1.03 ± 0.13
C55E | -1.03 ± 0.22
C55M | -0.827 ± 0.17
C55A | -0.806 ± 0.14
C55I | -0.67 ± 0.22
C55D | -1.39 ± 0.49
C55W | -0.858 ± 0.087
K49E | 0.144 ± 0.15
K49M | -0.065 ± 0.17
K49H | 0.602 ± 0.38
K49L | 0.066 ± 0.26
K49W | 0.006 ± 0.16

Variant | abundance fitness
K49S | -0.207 ± 0.41
K49T | 0.023 ± 0.18
K49V | 0.066 ± 0.12
K49A | 0 ± 0.15
K49G | 0.202 ± 0.13
K49F | -0.045 ± 0.22
R59T | -0.218 ± 0.054
R59A | -0.459 ± 0.062
R59V | -0.472 ± 0.058
R59K | -0.199 ± 0.064
R59L | 0.098 ± 0.035
R59M | -0.023 ± 0.053
R59E | -0.933 ± 0.16
R59P | -0.903 ± 0.16
R59C | -0.442 ± 0.1
R59I | -0.837 ± 0.19
R59F | -0.042 ± 0.079
R59H | -0.005 ± 0.078
R59D | -0.361 ± 0.13
R59S | -0.928 ± 0.13
R59G | -0.867 ± 0.076
R59W | 0.204 ± 0.038
R59Y | 0.107 ± 0.066
